Measured values reported in patent US20120156201A1 (PROTAB, published 2012).

Legend:
[1] = molecular target: T1, peptide-6 (HSP65-derived peptide, GPKGRNVVLEKKWGAP) (Mycobacterium tuberculosis); test: ELISA, peptide-6 coated at 10 µg/ml
T1 construct: also called peptide-6 antigen; 15
T1 peptide: GPKGRNVVLEKKWGAP

[2] = molecular target: T1, peptide-6 (HSP65-derived peptide, …); test: ELISA, peptide-6 coated plate
[3] = molecular target: T1, peptide-6 (HSP65-derived peptide, …); test: ELISA, peptide-6 coated at 10 µg/ml, anti-human IgG kappa peroxidase
[4] = molecular target: T2, human adenylyl cyclase-associated protein 1 (CAP1) fused to His tag at the N-terminus (human, UniProt Q01518 1-475); test: Western blot of over-expressed and purified His-CAP1
T2 construct: also called His-CAP1; His-tagged CAP1; not shown: 6xHIS tag at the N terminus from a modified Pet22b vector
T2 sequence (Q01518 whole entry, the tested form may be a part): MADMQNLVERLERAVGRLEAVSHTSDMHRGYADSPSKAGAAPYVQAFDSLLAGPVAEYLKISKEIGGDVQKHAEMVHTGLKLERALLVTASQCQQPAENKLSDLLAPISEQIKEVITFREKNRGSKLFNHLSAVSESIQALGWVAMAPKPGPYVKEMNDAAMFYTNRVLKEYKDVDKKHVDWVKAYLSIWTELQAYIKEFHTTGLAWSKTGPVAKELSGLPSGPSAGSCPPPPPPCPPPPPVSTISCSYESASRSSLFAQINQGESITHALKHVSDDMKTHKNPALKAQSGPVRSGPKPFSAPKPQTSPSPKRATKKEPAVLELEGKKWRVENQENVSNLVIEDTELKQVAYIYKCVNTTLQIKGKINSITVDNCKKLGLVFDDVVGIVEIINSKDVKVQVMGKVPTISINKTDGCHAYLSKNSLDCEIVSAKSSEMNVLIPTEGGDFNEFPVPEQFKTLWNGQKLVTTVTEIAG

[5] = molecular target: T1, peptide-6 (HSP65-derived peptide, …); test: ELISA, plates precoated with 10 µg/ml peptide-6, goat anti-human IgG peroxidase
[6] = molecular target: T1, peptide-6 (HSP65-derived peptide, …); test: ELISA, plates precoated with 10 µg/ml peptide-6, goat anti-mouse IgM peroxidase

| Binder | binding result [2] | binding result [3] | other results |
| --- | --- | --- | --- |
| humanized anti-peptide-6 antibody variant VH2/VK2 (antibody, V domains shown) VH: QVTLKESGPALVKPTQTLTLTCSFSGFSLSTSNMGVGWIRQPAGKGLEWLLHILWNDSKYYNPALKSRLTISKDTYKNQVVLTMTNMDPVDTATYYCARMGGYYGNYGYYAMDYWGQGTLVTVSS VL: QIVLTQSPATLSLSPGERATMSCTASSSVSSSYLHWYQQKPGKAPKLWIYSTSNLASGVPSRFSGSGSGTDYTLTISSLQPEDFATYYCHQYHRSPPTFGQGTKLEIK | – | – | binding result [1]: binds |
| humanized anti-peptide-6 antibody variant VH1/VK3 (antibody, V domains shown) VH: QVTLKESGPAIVKPTQTLTLTCSFSGFSLSTSNMGVGWIRQPSGKGLEWLLHILWNDSKYYNPALKSRLTISKDTYKNQVVLTMTNMDPVDTATYYCARMGGYYGNYGYYAMDYWGQGTSVTVSS VL: QIVLTQSPATLSLSPGERATLSCTASSSVSSSYLHWYQQKPGKAPKLWIYSTSNLASGVPSRFSGSGSGTDYTLTISSLQPEDFATYYCHQYHRSPPTFGQGTKLEIK | binds | – | – |
| humanized anti-peptide-6 antibody variant VH3/VK2 (antibody, V domains shown) VH: QVTLKESGPALVKPTQTLTLTCSFSGFSLSTSNMGVGWIRQPAGKGLEWLLHILWNDSKYYNPALKSRLTISKDTSKNQVVLTMTNMDPVDTATYYCARMGGYYGNYGYYAMDYWGQGTLVTVSS VL: QIVLTQSPATLSLSPGERATMSCTASSSVSSSYLHWYQQKPGKAPKLWIYSTSNLASGVPSRFSGSGSGTDYTLTISSLQPEDFATYYCHQYHRSPPTFGQGTKLEIK | – | binds | – |
| humanized anti-peptide-6 antibody variant VH4/VK3 (antibody, V domains shown) VH: QVTLKESGPALVKPTQTLTLTCSFSGFSLSTSNMGVGWIRQPAGKGLEWLAHILWNDSKYYNPALKSRLTISKDTSKNQVVLTMTNMDPVDTATYYCARMGGYYGNYGYYAMDYWGQGTLVTVSS VL: QIVLTQSPATLSLSPGERATLSCTASSSVSSSYLHWYQQKPGKAPKLWIYSTSNLASGVPSRFSGSGSGTDYTLTISSLQPEDFATYYCHQYHRSPPTFGQGTKLEIK | – | binds | – |
| humanized anti-peptide-6 antibody variant VH1/VK2 (antibody, V domains shown) VH: QVTLKESGPAIVKPTQTLTLTCSFSGFSLSTSNMGVGWIRQPSGKGLEWLLHILWNDSKYYNPALKSRLTISKDTYKNQVVLTMTNMDPVDTATYYCARMGGYYGNYGYYAMDYWGQGTSVTVSS VL: QIVLTQSPATLSLSPGERATMSCTASSSVSSSYLHWYQQKPGKAPKLWIYSTSNLASGVPSRFSGSGSGTDYTLTISSLQPEDFATYYCHQYHRSPPTFGQGTKLEIK | binds | – | – |
| humanized anti-peptide-6 antibody variant VH1/VK1 (antibody, V domains shown) VH: QVTLKESGPAIVKPTQTLTLTCSFSGFSLSTSNMGVGWIRQPSGKGLEWLLHILWNDSKYYNPALKSRLTISKDTYKNQVVLTMTNMDPVDTATYYCARMGGYYGNYGYYAMDYWGQGTSVTVSS VL: QIVLTQSPAILSLSPGERATMSCTASSSVSSSYLHWYQQKPGKAPKLWIYSTSNLASGVPSRFSGSGSGTDYTLTISSLQAEDFATYYCHQYHRSPPTFGQGTKLEIK | binds | – | – |
| humanized anti-peptide-6 antibody variant VH2/VK3 (antibody, V domains shown, also called humanized VH2/VK3; PRO01 VH2/VK3) VH: QVTLKESGPALVKPTQTLTLTCSFSGFSLSTSNMGVGWIRQPAGKGLEWLLHILWNDSKYYNPALKSRLTISKDTYKNQVVLTMTNMDPVDTATYYCARMGGYYGNYGYYAMDYWGQGTLVTVSS VL: QIVLTQSPATLSLSPGERATLSCTASSSVSSSYLHWYQQKPGKAPKLWIYSTSNLASGVPSRFSGSGSGTDYTLTISSLQPEDFATYYCHQYHRSPPTFGQGTKLEIK | – | – | binding result [1]: binds; binding result [4]: binds |
| humanized anti-peptide-6 antibody variant VH3/VK3 (antibody, V domains shown) VH: QVTLKESGPALVKPTQTLTLTCSFSGFSLSTSNMGVGWIRQPAGKGLEWLLHILWNDSKYYNPALKSRLTISKDTSKNQVVLTMTNMDPVDTATYYCARMGGYYGNYGYYAMDYWGQGTLVTVSS VL: QIVLTQSPATLSLSPGERATLSCTASSSVSSSYLHWYQQKPGKAPKLWIYSTSNLASGVPSRFSGSGSGTDYTLTISSLQPEDFATYYCHQYHRSPPTFGQGTKLEIK | – | binds | – |
| humanized anti-peptide-6 antibody variant VH2/VK1 (antibody, V domains shown) VH: QVTLKESGPALVKPTQTLTLTCSFSGFSLSTSNMGVGWIRQPAGKGLEWLLHILWNDSKYYNPALKSRLTISKDTYKNQVVLTMTNMDPVDTATYYCARMGGYYGNYGYYAMDYWGQGTLVTVSS VL: QIVLTQSPAILSLSPGERATMSCTASSSVSSSYLHWYQQKPGKAPKLWIYSTSNLASGVPSRFSGSGSGTDYTLTISSLQAEDFATYYCHQYHRSPPTFGQGTKLEIK | binds | – | – |
| humanized anti-peptide-6 antibody variant VH4/VK1 (antibody, V domains shown) VH: QVTLKESGPALVKPTQTLTLTCSFSGFSLSTSNMGVGWIRQPAGKGLEWLAHILWNDSKYYNPALKSRLTISKDTSKNQVVLTMTNMDPVDTATYYCARMGGYYGNYGYYAMDYWGQGTLVTVSS VL: QIVLTQSPAILSLSPGERATMSCTASSSVSSSYLHWYQQKPGKAPKLWIYSTSNLASGVPSRFSGSGSGTDYTLTISSLQAEDFATYYCHQYHRSPPTFGQGTKLEIK | – | binds | – |
| humanized anti-peptide-6 antibody variant VH3/VK1 (antibody, V domains shown) VH: QVTLKESGPALVKPTQTLTLTCSFSGFSLSTSNMGVGWIRQPAGKGLEWLLHILWNDSKYYNPALKSRLTISKDTSKNQVVLTMTNMDPVDTATYYCARMGGYYGNYGYYAMDYWGQGTLVTVSS VL: QIVLTQSPAILSLSPGERATMSCTASSSVSSSYLHWYQQKPGKAPKLWIYSTSNLASGVPSRFSGSGSGTDYTLTISSLQAEDFATYYCHQYHRSPPTFGQGTKLEIK | binds | – | – |
| humanized anti-peptide-6 antibody variant VH4/VK2 (antibody, V domains shown) VH: QVTLKESGPALVKPTQTLTLTCSFSGFSLSTSNMGVGWIRQPAGKGLEWLAHILWNDSKYYNPALKSRLTISKDTSKNQVVLTMTNMDPVDTATYYCARMGGYYGNYGYYAMDYWGQGTLVTVSS VL: QIVLTQSPATLSLSPGERATMSCTASSSVSSSYLHWYQQKPGKAPKLWIYSTSNLASGVPSRFSGSGSGTDYTLTISSLQPEDFATYYCHQYHRSPPTFGQGTKLEIK | – | binds | – |
| chimeric mouse-human anti-peptide-6 IgG1 antibody (antibody, V domains shown, also called chimeric mouse IgG1; chimeric mouse antibody) VH: QVTLKESGPGILQPSQTLSLTCSFSGFSLSTSNMGVGWIRQPSGKGLEWLLHILWNDSKYYNPALKSRLTISKDTYNNQVFLKIANVDTADTATYYCARMGGYYGNYGYYAMDYWGQGTSVTVSS VL: QIVLTQSPAIMSASLGERVTMTCTASSSVSSSYLHWYQQKPGSSPKLWIYSTSNLASGVPARFSGSGSGTSYSLTISSMEAEDAATYYCHQYHRSPPTFGSGTKLEIK | – | – | binding result [5]: binds |
| mouse anti-peptide-6 monoclonal antibody (IgM) (antibody, V domains shown, also called mouse-IgM) VH: QVTLKESGPGILQPSQTLSLTCSFSGFSLSTSNMGVGWIRQPSGKGLEWLLHILWNDSKYYNPALKSRLTISKDTYNNQVFLKIANVDTADTATYYCARMGGYYGNYGYYAMDYWGQGTSVTVSS VL: QIVLTQSPAIMSASLGERVTMTCTASSSVSSSYLHWYQQKPGSSPKLWIYSTSNLASGVPARFSGSGSGTSYSLTISSMEAEDAATYYCHQYHRSPPTFGSGTKLEIK | – | – | binding result [6]: binds |
